Assay results: patent publication US20200199241A1 (Chugai, published 2020)
Positions count from the first letter of the chain named.

B1: IgG1-F1331 (antibody)
heavy: QVQLQESGPGLVKPSETLSLTCAVSGHSISHDHAWSWVRQPPGEGLEWIGFISYSGITNYNPSLQGRVTISRDNSKNTLYLQMNSLRAEDTAVYYCARSLARTTAMDYWGEGTLVTVSSASTKGPSVFPLAPSSKSTSGGTAALGCLVKDYFPEPVTVSWNSGALTSGVHTFPAVLQSSGLYSLSSVVTVPSSSLGTQTYICNVNHKPSNTKVDKKVEPKSCDKTHTCPPCPAPELRRGPKVFLFPPKPKDTLYITREPEVTCVVVDVSHEDPEVKFNWYVDGVEVHNAKTKPREEQYNSTYRVVSVLTVLHQDWLNGKEYKCKVSNKALPAPIEKTISKAKGQPREPQVYTLPPSRDELTKNQVSLTCLVKGFYPSDIAVEWESNGQPENNYKTTPPVLDSDGSFFLYSKLTVDKSRWQQGNVFSCSVMHEALHYHVTRKELSLSP
light: not shown
notes: EU numbering; copies: 2 + 2
B2: IgG1-F1368 (antibody)
heavy: B1 heavy with R238G, V438F, R440K
light: not shown
notes: EU numbering; copies: 2 + 2
B3: IgG1-F1362 (antibody)
heavy: B1 heavy with R238G, E258T, H435D, V438F, R440K
light: not shown
notes: EU numbering; copies: 2 + 2
B4: IgG1-F1372 (antibody)
heavy: B1 heavy with R238G, H435D, V438T
light: not shown
notes: EU numbering; copies: 2 + 2
B5: IgG1-F1346 (antibody)
heavy: B1 heavy with E258T, R440K
light: not shown
notes: EU numbering; copies: 2 + 2
B6: IgG1-F1336 (antibody)
heavy: B1 heavy with T256S, R440K, E442D
light: not shown
notes: EU numbering; copies: 2 + 2
B7: IgG1-F1361 (antibody)
heavy: B1 heavy with R238G, E258T, H435D, V438T
light: not shown
notes: EU numbering; copies: 2 + 2
B8: IgG1-F1341 (antibody)
heavy: B1 heavy with R238G, E258T, V438T, R440K
light: not shown
notes: EU numbering; copies: 2 + 2
B9: IgG1-F1365 (antibody)
heavy: B1 heavy with R238G, T256S, H435D, V438T, R440K
light: not shown
notes: EU numbering; copies: 2 + 2
B10: IgG1-F1377 (antibody)
heavy: B1 heavy with R238G, T256S, R440Q, E442S
light: not shown
notes: EU numbering; copies: 2 + 2
B11: IgG1-F1355 (antibody)
heavy: B1 heavy with R238G, T256S, E258T, H435D, V438F
light: not shown
notes: EU numbering; copies: 2 + 2
B12: IgG1-F1353 (antibody)
heavy: B1 heavy with R238G, T256S, E258T, H435D, V438T
light: not shown
notes: EU numbering; copies: 2 + 2
B13: IgG1-F1343 (antibody)
heavy: B1 heavy with R238G, V438T, R440K
light: not shown
notes: EU numbering; copies: 2 + 2
B14: IgG1-F1370 (antibody)
heavy: B1 heavy with R238G, H435D, R440K
light: not shown
notes: EU numbering; copies: 2 + 2
B15: IgG1-F1351 (antibody)
heavy: B1 heavy with R238G, T256S, E258T, V438F
light: not shown
notes: EU numbering; copies: 2 + 2
B16: IgG1-F1352 (antibody)
heavy: B1 heavy with R238G, T256S, E258T, H435D, V438T, R440K
light: not shown
notes: EU numbering; copies: 2 + 2
B17: IgG1-F1354 (antibody)
heavy: B1 heavy with R238G, T256S, E258T, H435D, V438F, R440K
light: not shown
notes: EU numbering; copies: 2 + 2
B18: IgG1-F1357 (antibody)
heavy: B1 heavy with R238G, E258T, V438T
light: not shown
notes: EU numbering; copies: 2 + 2
B19: IgG1-F1345 (antibody)
heavy: B1 heavy with T256S, E258T, R440K
light: not shown
notes: EU numbering; copies: 2 + 2
B20: IgG1-F1344 (antibody)
heavy: B1 heavy with R238G, T256S, E258T, V438T, R440K
light: not shown
notes: EU numbering; copies: 2 + 2
B21: IgG1-F1358 (antibody)
heavy: B1 heavy with R238G, E258T, V438F, R440K
light: not shown
notes: EU numbering; copies: 2 + 2
B22: IgG1-F1366 (antibody)
heavy: B1 heavy with R238G, T256S, H435D, V438F, R440K
light: not shown
notes: EU numbering; copies: 2 + 2
B23: IgG1-F1376 (antibody)
heavy: B1 heavy with R238G, R440Q, E442S
light: not shown
notes: EU numbering; copies: 2 + 2
B24: IgG1-F1348 (antibody)
heavy: B1 heavy with R440K
light: not shown
notes: EU numbering; copies: 2 + 2
B25: IgG1-F1379 (antibody)
heavy: B1 heavy with R238G, T256S, E258T, V438F, R440Q, E442S
light: not shown
notes: EU numbering; copies: 2 + 2
B26: IgG1-F1363 (antibody)
heavy: B1 heavy with R238G, E258T, H435D, V438F
light: not shown
notes: EU numbering; copies: 2 + 2
B27: IgG1-F1359 (antibody)
heavy: B1 heavy with R238G, E258T, V438F
light: not shown
notes: EU numbering; copies: 2 + 2
B28: IgG1-F1342 (antibody)
heavy: B1 heavy with R238G, T256S, V438T, R440K
light: not shown
notes: EU numbering; copies: 2 + 2
B29: IgG1-F1375 (antibody)
heavy: B1 heavy with R238G, E258T, R440Q, E442S
light: not shown
notes: EU numbering; copies: 2 + 2
B30: IgG1-F1378 (antibody)
heavy: B1 heavy with R238G, T256S, E258T, V438T, R440Q, E442S
light: not shown
notes: EU numbering; copies: 2 + 2
B31: IgG1-F1367 (antibody)
heavy: B1 heavy with R238G, V438T
light: not shown
notes: EU numbering; copies: 2 + 2
B32: IgG1-F1334 (antibody)
heavy: B1 heavy with T256S, E258T, R440K, E442D
light: not shown
notes: EU numbering; copies: 2 + 2
B33: IgG1-F1371 (antibody)
heavy: B1 heavy with R238G, H435D
light: not shown
notes: EU numbering; copies: 2 + 2
B34: IgG1-F1350 (antibody)
heavy: B1 heavy with R238G, T256S, E258T, V438F, R440K
light: not shown
notes: EU numbering; copies: 2 + 2
B35: IgG1-F1360 (antibody)
heavy: B1 heavy with R238G, E258T, H435D, V438T, R440K
light: not shown
notes: EU numbering; copies: 2 + 2
B36: IgG1-F1337 (antibody)
heavy: B1 heavy with R238G, T256S, R440K
light: not shown
notes: EU numbering; copies: 2 + 2
B37: IgG1-F1374 (antibody)
heavy: B1 heavy with R238G, H435D, V438F
light: not shown
notes: EU numbering; copies: 2 + 2
B38: IgG1-F1338 (antibody)
heavy: B1 heavy with R238G, T256S, H435D, R440K
light: not shown
notes: EU numbering; copies: 2 + 2
B39: IgG1-F1373 (antibody)
heavy: B1 heavy with R238G, H435D, V438F, R440K
light: not shown
notes: EU numbering; copies: 2 + 2
B40: IgG1-F1347 (antibody)
heavy: B1 heavy with T256S, R440K
light: not shown
notes: EU numbering; copies: 2 + 2
B41: IgG1-F1349 (antibody)
heavy: B1 heavy with R238G, T256S, E258T, V438T
light: not shown
notes: EU numbering; copies: 2 + 2

These binders were tested against T1, soluble human FcRn complexed with β2-microglobulin (human, UniProt P61769 21-119, limits assumed) (assay: Biacore SPR, pH 7.0;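 further: test antibodies captured on a Protein L chip with human FcRn flowed over as analyte, KD obtained as the ratio of dissociation to association rate constants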).
T1 construct: also called hFcRn

| Kd | Binder |
| --- | --- |
| 77.5 nM | B1 |
| 54.9 nM | B2 |
| 141 nM | B3 |
| 228 nM | B4 |
| 85.9 nM | B5 |
| 71.8 nM | B6 |
| 352 nM | B7 |
| 322 nM | B8 |
| 314 nM | B9 |
| 82.7 nM | B10 |
| 247 nM | B11 |
| 433 nM | B12 |
| 201 nM | B13 |
| 91.4 nM | B14 |
| 162 nM | B15 |
| 393 nM | B16 |
| 229 nM | B17 |
| 281 nM | B18 |
| 105 nM | B19 |
| 396 nM | B20 |
| 90.7 nM | B21 |

| Kd | Binder |
| --- | --- |
| 117 nM | B22 |
| 90.9 nM | B23 |
| 55.2 nM | B24 |
| 285 nM | B25 |
| 190 nM | B26 |
| 128 nM | B27 |
| 251 nM | B28 |
| 103 nM | B29 |
| 361 nM | B30 |
| 179 nM | B31 |
| 104 nM | B32 |
| 109 nM | B33 |
| 118 nM | B34 |
| 312 nM | B35 |
| 74.1 nM | B36 |
| 120 nM | B37 |
| 104 nM | B38 |
| 86.7 nM | B39 |
| 71.4 nM | B40 |
| 336 nM | B41 |
